This passage reports Kd results from publication PMC3554631, “Structural Basis of a Histone H3 Lysine 4 Demethylase Required for Stem Elongation in Rice” (PLoS Genetics, 2013).

Assay [1] has as its target T1, c-JMJ703, catalytic core domain of JMJ703 (amino acids 139 to 498) (rice, UniProt Q53WJ1 139-498).
T1 construct: JMJ703, rice JmjC domain-containing histone H3K4 demethylase; amino acids 139 to 498, covering the JmjN domain (A139-K199), long beta-hairpin (D200-T271), mixed domain (L272-V377) and JmjC domain (L378-A498); Cloned into pET-28a with BamHI and XhoI; also called J3NC; catalytic core of JMJ703; source: E. coli Rosetta (DE3), purified (Ni-NTA, thrombin cleavage, Hitrap Q anion exchange)
Put plainly: SPR; BIAcore 3000, 25°C; c-JMJ703 amine-coupled to a CM5 chip; peptides injected at various concentrations at 10 µL/min for 2 min in 10 mM HEPES pH 7.5, 150 mM NaCl, 0.005% Tween20; reference flow cell subtracted. The settings on record: both partners purified. (SPR reads the build-up and loss of mass on a sensor chip optically.)

Assay [2] deals with T2, FA-J3NCZ, FLAG:HA-tagged JmjN-JmjC-zinc finger region of JMJ703 (amino acids 113 to 700) (rice, UniProt Q53WJ1 113-700).
T2 construct: JMJ703, rice; JmjN-JmjC-zinc finger region between amino acids 113 and 700; the only production of J3NCZ that the methods tell is the FLAG:HA-tagged one from tobacco cells (vector pFA121); source: tobacco leaf cells (Agrobacterium infection), purified with Anti-FLAG M2 magnetic beads
T2 sequence (looked up): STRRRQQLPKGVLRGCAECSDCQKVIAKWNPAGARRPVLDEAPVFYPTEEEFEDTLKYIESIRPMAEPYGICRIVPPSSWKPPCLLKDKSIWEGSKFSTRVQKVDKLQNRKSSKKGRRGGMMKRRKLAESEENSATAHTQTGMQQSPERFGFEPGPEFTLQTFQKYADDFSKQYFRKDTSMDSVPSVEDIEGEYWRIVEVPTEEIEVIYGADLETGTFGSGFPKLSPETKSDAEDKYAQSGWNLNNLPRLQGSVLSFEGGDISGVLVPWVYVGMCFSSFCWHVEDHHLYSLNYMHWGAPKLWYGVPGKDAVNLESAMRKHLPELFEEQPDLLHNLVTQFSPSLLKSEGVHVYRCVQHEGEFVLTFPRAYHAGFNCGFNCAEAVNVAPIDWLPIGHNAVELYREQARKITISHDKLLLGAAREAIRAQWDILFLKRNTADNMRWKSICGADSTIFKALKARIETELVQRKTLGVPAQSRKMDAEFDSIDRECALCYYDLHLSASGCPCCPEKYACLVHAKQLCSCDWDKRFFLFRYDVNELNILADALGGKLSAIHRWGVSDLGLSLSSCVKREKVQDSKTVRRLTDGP
Briefly: SPR; J3NCZ (FA-J3NCZ) with different concentrations of peptide; set-up for this protein not told in the methods. The settings on record: both partners purified.

For orientation: Kd means the equilibrium constant for the complex coming apart. A higher Kd goes with a looser complex.

Where no end group is shown, it is not given here. Me3 = trimethyl

Regarding ARTK(Me3)QTARKS [H3K4me3 peptide (ARTKme3QTARKS)], the Kd came to 30.1 µM in assay [1] and 15.9 µM in assay [2].
